According to paper PMC3962104:

Biological target: T1, S. cerevisiae Ump1, C-terminally 6His-tagged (wild type) (S. cerevisiae), P38293
T1 chain: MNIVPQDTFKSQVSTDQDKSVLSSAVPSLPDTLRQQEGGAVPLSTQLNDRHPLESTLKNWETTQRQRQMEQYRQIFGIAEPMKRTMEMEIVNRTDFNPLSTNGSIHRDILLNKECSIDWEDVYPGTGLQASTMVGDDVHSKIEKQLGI
Assay: non-reducing SDS-PAGE; ion-exchange peak fractions loaded in sample buffer without (-) or with (+) 10 mM DTT, 15% SDS-PAGE, Coomassie Blue; the 36 kDa species is seen when no reducing agent is added
Conditions: remark: other sources report otherwise

B1: S. cerevisiae Ump1, C-terminally 6His-tagged (wild type), P38293 1-148 (natural protein)
chain: T1 chain
stoichiometry N: 2
